T1: cyclo(CGHHQKG) cyclic peptide, conjugated to BSA (also: conjugated to BSA, site not given here)
T1 construct: BSA is the carrier used for screening; also called cyclopeptide; Cyclo-BSA
T1 peptide: cyclo(CGHHQKG)


What was measured:
[1] = molecular target: T1, cyclo(CGHHQKG) cyclic peptide, …; assay: ProteOn biosensor; antibody amine-coupled to GLH chip, cyclo-BSA 9 nM to 111 pM
[2] = molecular target: T2, commercially-prepared stable A-beta42 Oligomers (SynAging) (human); assay: ProteOn biosensor; antibody captured with anti-mouse IgG or amine-coupled, AbO dilutions injected
T2 construct: Bought oligomer preparation; also called AbO; SynAging AbO

[3] = molecular target: T1, cyclo(CGHHQKG) cyclic peptide, …; assay: single cycle Biacore analysis
[4] = molecular target: T1, cyclo(CGHHQKG) cyclic peptide, …; assay: SPR; immobilized antibody pre-exposed to the cyclic peptide

T2 sequence (peptide, as listed by the source): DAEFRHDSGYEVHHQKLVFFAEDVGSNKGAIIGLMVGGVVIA

Row | Binder | Kd [1] | Kd [2] | Kd [3] | binding result [4]
1 | Chimeric 301-17 antibody (VH0 Vk0), mouse variable regions on human IgG4 / kappa (antibody, also called V0H0 and V0k0) heavy: not shown light: DVLMTQTPLSLPVSLGDQASISCRSSQSIVHSNGNTYLEWYLQKPGQSPKLLIYKVSNRFSGVPDRFSGSGSGTDFTLKISRVEAEDLGVYYCFQGSHVPFTFGSGTKLEIKRTVAAPSVFIFPPSDEQLKSGTASVVCLLNNFYPREAKVQWKVDNALQSGNSQESVTEQDSKDSTYSLSSTLTLSKADYEKHKVYACEVTHQGLSSPVTKSFNRGEC |  |  | ~20 pM | 
2 | 301-17 mouse monoclonal antibody, hybridoma-purified IgG3 (antibody, V domains shown, mouse IgG3 / kappa; also called mu301-17) VH: QVQLQQPGAELVKPGASVKMSCKASGYSFTSYWINWVKQRPGQGLEWIGDVHPGRGVSTYNAKFKSKATLTLDTSSSTAYMQLSSLTSEDSAVYYCSRSHGNTYWFFDVWGAGTTVTVSSATTTAPS VL: DVLMTQTPLSLPVSLGDQASISCRSSQSIVHSNGNTYLEWYLQKPGQSPKLLIYKVSNRFSGVPDRFSGSGSGTDFTLKISRVEAEDLGVYYCFQGSHVPFTFGSGTKLEIKRADA |  | 26900 pM | 400 pM | 

Second part, the binder after the results:

Row | Kd [1] | Kd [2] | Kd [3] | binding result [4] | Binder
3 | ~17 pM | 16200 to 19500 pM |  |  | Recombinant 301-17 IgG2a (murine IgG2a backbone) (antibody) heavy: QVQLQQPGAELVKPGASVKMSCKASGYSFTSYWINWVKQRPGQGLEWIGDVHPGRGVSTYNAKFKSKATLTLDTSSSTAYMQLSSLTSEDSAVYYCSRSHGNTYWFFDVWGAGTTVTVSSAKTTAPSVYPLAPVCGDTTGSSVTLGCLVKGYFPEPVTLTWNSGSLSSGVHTFPAVLQSDLYTLSSSVTVTSSTWPSQSITCNVAHPASSTKVDKKIEPRGPTIKPCPPCKCPAPNLLGGPSVFIFPPKIKDVLMISLSPIVTCVVVDVSEDDPDVQISWFVNNVEVHTAQTQTHREDYNSTLRVVSALPIQHQDWMSGKEFKCKVNNKDLPAPIERTISKPKGSVRAPQVYVLPPPEEEMTKKQVTLTCMVTDFMPEDIYVEWTNNGKTELNYKNTEPVLDSDGSYFMYSKLRVEKKNWVERNSYSCSVVHEGLHNHHTTKSFSRTPGK light: DVLMTQTPLSLPVSLGDQASISCRSSQSIVHSNGNTYLEWYLQKPGQSPKLLIYKVSNRFSGVPDRFSGSGSGTDFTLKISRVEAEDLGVYYCFQGSHVPFTFGSGTKLEIKRADAAPTVSIFPPSSEQLTSGGASVVCFLNNFYPKDINVKWKIDGSERQNGVLNSWTDQDSKDSTYSMSSTLTLTKDEYERHNSYTCEATHKTSTSPIVKSFNRNEC
4 |  |  |  | binds | Humanized antibody of 301-17 (VH2 Vk5), human IgG4 (S241P hinge variant) / kappa (antibody, V domains shown, also called hu301-17) VH: QVQLVQSGAEVKKPGASVKMSCKASGYSFTSYWINWVKQRPGQGLEWIGDVHPGRGVSTYNAKFKSRATLTLDTSISTAYMELSSLRSEDTAVYYCSRSHGNTYWFFDVWGQGTTVTVSS VL: DVLMTQSPLSLPVTLGQPASISCRSSQSIVHSNGNTYLEWYQQRPGQSPRLLIYKVSNRFSGVPDRFSGSGSGTDFTLKISRVEAEDVGVYYCFQGSHVPFTFGQGTKLEIKR

— patent EP3574020B1 (The University of British Columbia, dated 2024)
